This note sets out measurements from paper PMC7954600.

The target in this assay is complex I-containing supercomplex (human (endogenous in fibroblasts and HEK293)) (UniProt P56181). Briefly: complexome profiling (blue native electrophoresis with mass spectrometry); mitochondria-enriched membranes of control fibroblast and control HEK293 cells, solubilised with detergent (digitonin for supercomplexes), 3% to 18% acrylamide blue native gel, gel bands or slices read by quantitative mass spectrometry; co-migration.
UniProt P56181, sequence (P56181 whole entry, looked up, one chain of several): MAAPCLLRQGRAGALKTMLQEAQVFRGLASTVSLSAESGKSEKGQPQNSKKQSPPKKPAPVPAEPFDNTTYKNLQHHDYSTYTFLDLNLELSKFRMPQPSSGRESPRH

B1: DNAJC30 (natural protein)
chain: SQGDCSYSRTALYDLLGVPSTATQAQIKAAYYRQCFLYHPDRNSGSAEAAERFTRISQAYVVLGSATLRRKYDRGLLSDEDLRGPGVRPSRTPAPDPGSPRTPPPTSRTHDGSRASPGANRTMFNFDAFYQAHYGEQLERERRLRARREALRKRQEYRSMKGLRWEDTRDTAAIFLIFSIFIIIGFYI
Regarding B1, the ratio DNAJC30/complex I in the supercomplex (DNAJC30/complex I) was 0.005.
